Values joined by “and” are separate entries in the source; they are usually repeats but may differ in a detail not shown here. Equal values may be shown once.
T1: TGF-β2 K25R I92V K94R (TGF-β2TM) (UniProt P61812 303-414, K25R; I92V; K94R)
T1 construct: mature
T1 sequence (looked up): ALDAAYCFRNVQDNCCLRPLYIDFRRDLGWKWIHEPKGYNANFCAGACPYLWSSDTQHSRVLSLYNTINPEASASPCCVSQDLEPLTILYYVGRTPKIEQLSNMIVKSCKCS

T2: TGF-β3 (UniProt P10600 301-412)
T2 sequence (looked up): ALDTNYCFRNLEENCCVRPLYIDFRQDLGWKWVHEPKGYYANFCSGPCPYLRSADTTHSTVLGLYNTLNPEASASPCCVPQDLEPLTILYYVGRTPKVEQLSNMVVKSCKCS

B1: purified TGF-β type II receptor ectodomain (RII) (receptor)
chain: NGAVKFPQLCKFCDVRFSTCDNQKSCMSNCSITSICEKPQEVCVAVWRKNDENITLETVCHDPKLPYHDFILEDAASPKCIMKEKKKPGETFFMCSCSSDECNDNIIFSEEYNTSNPD
B2: purified TGF-β type III receptor ectodomain (RIII) (receptor)
chain: CELSPINASHPVQALMESFTVLSGCASRGTTGLPREVHVLNLRSTDQGPGQRQREVTLHLNPIASVHTHHKPIVFLLNSPQPLVWHLKTERLAAGVPRLFLVSEGSVVQFPSGNFSLTAETEERNFPQENEHLLRWAQKEYGAVTSFTELKIARNIYIKVGEDQVFPPTCNIGKNFLSLNYLAEYLQPKAAEGCVLPSQPHEKEVHIIELITPSSNPYSAFQVDIIVDIRPAQEDPEVVKNLVLILKCKKSVNWVIKSFDVKGNLKVIAPNSIGFGKESERSMTMTKLVRDDIPSTQENLMKWALDNGYRPVTSYTMAPVANRFHLRLENNEEMRDEEVHTIPPELRILLDPDHPPALDNPLFPGEGSPNGGLPFPFPDIPRRGWKEGEDRIPRPKQPIVPSVQLLPDHREPEEVQGGVDIALSVKCDHEKMVVAVDKDSFQTNGYSGMELTLLDPSCKAKMNGTHFVLESPLNGCGTRHRRSTPDGVVYYNSIVVQAPSPGDSAGWPDGYEDLEAGDNGFPGDGDEGETAPLSRAGVVVFNCSLRQLRNPSGFQGQLDGNATFNMELYNTDLFLVPSPGVFSVAENEHVYVEVSVTKADQDLGFAIQTCFLSPYSNPDRMSDYTIIENICPKDDSVKFYSSKRVHFPIPHAEVDKKRFSFLFKSVFNTSLLFLHCELTLCSRKKGSLKLPRCVTPDDACTSLDATMIWTMMQNKKTFTKPLAVVLQVD
notes: EU was made in CHO Lec 3.2.8.1 cells and purified on NiNTA, which implies a His tag that is not explicitly stated for EU; also called EU; RIII (EU)
B3: RII-RIII (REU) fusion (other)
chain: AAANGAVKFPQLCKFCDVRFSTCDNQKSCMSNCSITSICEKPQEVCVAVWRKNDENITLETVCHDPKLPYHDFILEDAASPKCIMKEKKKPGETFFMCSCSSDECNDNIIFSEEYNTSNPDGLGPVESSPGHGLDTAAACELSPINASHPVQALMESFTVLSGCASRGTTGLPREVHVLNLRSTDQGPGQRQREVTLHLNPIASVHTHHKPIVFLLNSPQPLVWHLKTERLAAGVPRLFLVSEGSVVQFPSGNFSLTAETEERNFPQENEHLLRWAQKEYGAVTSFTELKIARNIYIKVGEDQVFPPTCNIGKNFLSLNYLAEYLQPKAAEGCVLPSQPHEKEVHIIELITPSSNPYSAFQVDIIVDIRPAQEDPEVVKNLVLILKCKKSVNWVIKSFDVKGNLKVIAPNSIGFGKESERSMTMTKLVRDDIPSTQENLMKWALDNGYRPVTSYTMAPVANRFHLRLENNEEMRDEEVHTIPPELRILLDPDHPPALDNPLFPGEGSPNGGLPFPFPDIPRRGWKEGEDRIPRPKQPIVPSVQLLPDHREPEEVQGGVDIALSVKCDHEKMVVAVDKDSFQTNGYSGMELTLLDPSCKAKMNGTHFVLESPLNGCGTRHRRSTPDGVVYYNSIVVQAPSPGDSAGWPDGYEDLEAGDNGFPGDGDEGETAPLSRAGVVVFNCSLRQLRNPSGFQGQLDGNATFNMELYNTDLFLVPSPGVFSVAENEHVYVEVSVTKADQDLGFAIQTCFLSPYSNPDRMSDYTIIENICPKDDSVKFYSSKRVHFPIPHAEVDKKRFSFLFKSVFNTSLLFLHCELTLCSRKKGSLKLPRCVTPDDACTSLDATMIWTMMQNKKTFTKPLAVVLQVD

Assays:
[1] = molecular target: T1, TGF-β2 K25R I92V K94R (TGF-β2TM); test: SPR, RII injected over immobilized TGF-β2TM with or without 80 nM RIII (competitor RIII)
Procedure: (§1) FIG. 2. RII (R) and RIII (EU) form a 1:1:1 complex with TGF-β homodimers. (a) SPR sensorgrams in which increasing concentrations of RII and RIII were injected over a SPR sensor surface with immobilized TGF-β2TM. Mass normalized sensorgrams are shown in panels on the left. Plots of the mass normalized equilibrium response (Req) as a function of receptor concentration ([Receptor]), along with fits to Req=(Rₘₐₓ×[Receptor])/(Kd+[Receptor]), are shown on the right.
The TGF-β type III receptor potentiates the binding of the TGF-β type II receptor, but reduces its binding stoichiometry to one per TGF-β homodimer. This was shown by performing SPR experiments in which increasing concentrations of RII were injected over immobilized TGF-β2TM in the absence or presence of a saturating concentration of RIII (80 nM) (FIG. 2b).

[2] = molecular target: T1, TGF-β2 K25R I92V K94R (TGF-β2TM); test: SDS-PAGE densitometry of the SEC-isolated complex (TGF-β2TM 51.6 pmol)
Excerpt: RII:RIII:TGF-β2TM form a stable non-disassociating 1:1:1 complex in solution. […] The mixture was applied to a Superdex 200 size exclusion chromatography column and the UV absorbance of the column eluate at 280 nm was monitored. […] To determine the stoichiometry of the complex, a sample of the isolated RII:RIII:TGFβ2-TM complex was run on an SDS-PAGE gel along with known amounts of the individual components (FIG. 3d).

[3] = molecular target: T1, TGF-β2 K25R I92V K94R (TGF-β2TM); test: SPR, receptor injected over immobilized TGF-β2TM
Procedure: as §1
The TGF-β type III receptor binds TGF-β dimers with 1:1 stoichiometry. This was shown by comparing the maximal mass-normalized SPR response as increasing concentrations of the purified TGF-β type II receptor ectodomain (RII) and purified TGF-β type III receptor ectodomain (RIII) were injected over immobilized TGF-β2 K25R I92V K94R (TGF-β2TM), a variant of TGF-β2 that binds RII with high affinity (Baardsnes et al, 2009, Biochemistry, 48, 2146-2155; De Crescenzo et al, 2006, J Mol Biol, 355, 47-62).

TGF-β3 = molecular target: T2, TGF-β3; test: SPR competition, receptor with 0.8 nM TGF-β3 over immobilized 1D11
Procedure: FIG. 6. SPR competition binding data in which increasing concentrations of RII (R), RIII (EU), and RII-RIII (REU) were pre-incubated with 0.8 nM TGF-β3 for 16 h and then injected over a high-density (20000 RU) SPR surface with the TGF-β monoclonal antibody 1D11. Data is presented in terms of the initial slope (which is directly proportional to the concentration of the free TGF-β3 concentration) as a function of the competitor (R, EU, or REU) concentration. Two independent measurements were performed for each of the receptor constructs studied (designated by −a and −b in the legend).
The initial slope of these sensorgrams, which is a linear function of the free TGF-β3 concentration, was then plotted as a function of the concentration of RII, RIII (EU), or RII-RIII (REU) (FIG. 6).

Row | Binder | fold reduction of the maximal mass normalized binding response in the presence of 80 nM RIII [1] | amount in the isolated RII:RIII:TGF-β2TM complex [2] | maximal mass-normalized response relative to that of RII [3] | decrease of EC50 relative to RII or RIII (EU) (TGF-β3)
1 | B1 | 2 fold | 61.8 pmol | – | –
2 | B2 | – | 62.4 pmol | ~0.5 fold (ratio to RII) | –
3 | B3 | – | – | – | ≥ 0.5 log units and ~3 fold
